Measured values: PMC7177926, “Spliceosomal Protein Gene BmSPX Regulates Reproductive Organ Development in Bombyx mori”

Target: MBP-BmPSI (P-element somatic inhibitor) (Bombyx mori, UniProt A8R081 1-703)
Experiment: EMSA; RNA dissolved in protein purification buffer, 20 mM Tris, 20 mM NaCl; pH, temperature and EMSA binding details not given
Conditions: protein: recombinant; tags: N-terminal His6-MBP-TEV; label: biotin at 5' and 3' ends; single strand

Chain of MBP-BmPSI (P-element somatic inhibitor) (A8R081 entry or part of it): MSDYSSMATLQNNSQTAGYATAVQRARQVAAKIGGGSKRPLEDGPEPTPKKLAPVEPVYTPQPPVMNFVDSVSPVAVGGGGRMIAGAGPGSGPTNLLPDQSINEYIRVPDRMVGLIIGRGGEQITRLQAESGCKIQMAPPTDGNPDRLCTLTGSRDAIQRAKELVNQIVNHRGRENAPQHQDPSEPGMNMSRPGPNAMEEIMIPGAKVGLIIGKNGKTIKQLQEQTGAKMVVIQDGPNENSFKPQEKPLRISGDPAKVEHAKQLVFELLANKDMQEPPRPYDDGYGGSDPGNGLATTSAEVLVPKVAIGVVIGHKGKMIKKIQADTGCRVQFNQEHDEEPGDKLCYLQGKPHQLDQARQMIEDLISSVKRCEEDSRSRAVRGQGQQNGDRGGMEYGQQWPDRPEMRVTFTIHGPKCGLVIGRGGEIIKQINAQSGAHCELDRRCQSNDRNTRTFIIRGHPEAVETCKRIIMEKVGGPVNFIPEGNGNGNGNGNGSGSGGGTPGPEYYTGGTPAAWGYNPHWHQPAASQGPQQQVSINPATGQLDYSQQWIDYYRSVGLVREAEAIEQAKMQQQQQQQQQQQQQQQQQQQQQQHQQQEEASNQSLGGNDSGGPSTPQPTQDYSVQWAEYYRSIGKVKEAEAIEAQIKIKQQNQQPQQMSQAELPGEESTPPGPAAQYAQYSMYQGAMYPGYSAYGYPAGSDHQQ

UUAAUAAUAUAAGUGGUGUA (ssRNA) [CE1 RNA probe]: binds.
